Measurements taken from US20230142800A1 (COMMISSARIAT A L ENERGIE ATOMIQUE ET AUX ENERGIES …, published 2023).
Where a chain is given by its changes, count along the chain named. Blank lines part the entries; values can stand above or below the binder they belong to.

Experiments:
[1] = target: T1, biotinylated TNF alpha (human (definition in paragraph 32)); the …, UniProt P01375 77-233, biotinylated (site not stated)); experiment: yeast display FACS sorting on biotinylated TNF alpha, NGS enrichment, CDRH2 library
T1 construct: Used for FACS sorting of yeast libraries and immobilised on streptavidin sensors for BLI; also called TNFα; Tumor Necrosis Factor Alpha

[2] = target: T1, biotinylated TNF alpha; experiment: yeast display FACS sorting on biotinylated TNF alpha, NGS enrichment, CDRH2-CDRH3 library
[3] = target: T1, biotinylated TNF alpha; experiment: BLI (Octet Red96), Fab in solution, biotinylated TNF alpha on streptavidin sensors, 1:1 global fit
Method: After saturation the sensors in a blocking solution containing 10 μg/mL biotin (Sigma-Aldrich, Saint-Louis, United States), the association and dissociation are measured over 20 and 40 minutes respectively. […] During the analysis, the reference is subtracted from each curve and a 1:1 global Langmuir model is applied in order to get the affinity parameters.

T1 sequence (P01375 77-233 limits assumed): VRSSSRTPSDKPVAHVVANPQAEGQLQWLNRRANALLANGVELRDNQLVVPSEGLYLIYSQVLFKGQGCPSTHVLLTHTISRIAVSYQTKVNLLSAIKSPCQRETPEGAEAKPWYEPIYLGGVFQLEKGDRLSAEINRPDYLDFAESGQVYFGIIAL

B1: CDRH2 library mutant AAIAWNGGHR (Fab, V domains shown)
VH: EVQLVESGGGLVQPGRSLRLSCAASGFTFDDYAMHWVRQAPGKGLEWVAAIAWNGGHRDYADSVEGRFTISRDNAKNSLYLQMNSLRAEDTAVYYCAKVSYLSTASSLDYWGQGTLVTVSS
VL: not shown
Enrichment [1]: 197

B3: CDRH2 library mutant AAISWNGGHS (Fab, V domains shown)
VH: B1 VH with A52S, R58S
VL: not shown
Enrichment [1]: 82

B6: CDRH2 library mutant AAISWNGGHQ (Fab, V domains shown)
VH: B1 VH with A52S, R58Q
VL: not shown
Enrichment [1]: 192

B7: CDRH2 library mutant AAISWNGGHT (Fab, V domains shown)
VH: B1 VH with A52S, R58T
VL: not shown
Enrichment [1]: 193

B11: CDRH2 library mutant AAIAWNGGHS (Fab, V domains shown)
VH: B1 VH with R58S
VL: not shown
Enrichment [1]: 93

B12: CDRH2 library mutant AAIAWNGGHT (Fab, V domains shown)
VH: B1 VH with R58T
VL: not shown
Enrichment [1]: 144

B13: CDRH2 library mutant AAINWNSGHR (Fab, V domains shown)
VH: B1 VH with A52N, G55S
VL: not shown
Enrichment [1]: 122

B15: CDRH2 library mutant AAINWNSGHQ (Fab, V domains shown)
VH: B1 VH with A52N, G55S, R58Q
VL: not shown
Enrichment [1]: 105

B16: CDRH2 library mutant GAINWNGGHR (Fab, V domains shown)
VH: B1 VH with A49G, A52N
VL: not shown
Enrichment [1]: 222

B17: CDRH2 library mutant GAINWNGGHT (Fab, V domains shown)
VH: B1 VH with A49G, A52N, R58T
VL: not shown
Enrichment [1]: 62

B19: CDRH2 library mutant GAISWNGGHT (Fab, V domains shown)
VH: B1 VH with A49G, A52S, R58T
VL: not shown
Enrichment [1]: 133

B25: CDRH2 library mutant AAITWNGGHT (Fab, V domains shown)
VH: B1 VH with A52T, R58T
VL: not shown
Enrichment [1]: 91

B26: CDRH2 library mutant AAISWNGGHA (Fab, V domains shown)
VH: B1 VH with A52S, R58A
VL: not shown
Enrichment [1]: 75

B27: CDRH2 library mutant GAITWNGGHR (Fab, V domains shown)
VH: B1 VH with A49G, A52T
VL: not shown
Enrichment [1]: 64

B28: CDRH2 library mutant GAISWNGGHR (Fab, V domains shown)
VH: B1 VH with A49G, A52S
VL: not shown
Enrichment [1]: 279

B29: CDRH2 library mutant AAITWNGGHR (Fab, V domains shown)
VH: B1 VH with A52T
VL: not shown
Enrichment [1]: 213

B30: CDRH2 library mutant GAISWNGGHH (Fab, V domains shown)
VH: B1 VH with A49G, A52S, R58H
VL: not shown
Enrichment [1]: 66

B32: CDRH2 library mutant AAINWNGGHH (Fab, V domains shown)
VH: B1 VH with A52N, R58H
VL: not shown
Enrichment [1]: 132

B33: CDRH2 library mutant AAINWNGGHR (Fab, V domains shown)
VH: B1 VH with A52N
VL: not shown
Enrichment [1]: 417

B34: CDRH2 library mutant AAISWNGGHR (Fab, V domains shown)
VH: B1 VH with A52S
VL: not shown
Enrichment [1]: 382

B36: CDRH2 library mutant AAISWNGGHH (Fab, V domains shown)
VH: B1 VH with A52S, R58H
VL: not shown
Enrichment [1]: 164

Second part, the binder after the results:

Enrichment [2]: 186000
B2: Mutant 4, Fab displayed on yeast (CDRH2-CDRH3 combinatorial library) (Fab, V domains shown)
VH: B1 VH with A49G, A52N, G55S, R58H, V99T, S100T, S103P
VL: not shown
notes: same variable domains as the soluble Mutant 4 Fab; see its note

Enrichment [1]: 104
B4: CDRH2 library mutant SAISWNGGHQ (Fab, V domains shown)
VH: B1 VH with A49S, A52S, R58Q
VL: not shown

Enrichment [2]: 217000
B5: Mutant 1, Fab displayed on yeast (CDRH2-CDRH3 combinatorial library) (Fab, V domains shown)
VH: B1 VH with A49G, A52N, V99S, S100Q, S103P
VL: not shown
notes: same variable domains as the soluble Mutant 1 Fab; see its note

Enrichment [2]: 238000
B8: Mutant 6, Fab displayed on yeast (CDRH2-CDRH3 combinatorial library) (Fab, V domains shown)
VH: B1 VH with A49G, A52N, V99T, S100N, S103P
VL: not shown
notes: same variable domains as the soluble Mutant 6 Fab; see its note

Enrichment [2]: 59400
B9: Mutant 7, Fab displayed on yeast (CDRH2-CDRH3 combinatorial library) (Fab, V domains shown)
VH: B1 VH with A49G, A52N, V99A, S100H, S103P
VL: not shown
notes: same variable domains as the soluble Mutant 7 Fab; see its note

Enrichment [1]: 87
B10: CDRH2 library mutant SAISWNGGHH (Fab, V domains shown)
VH: B1 VH with A49S, A52S, R58H
VL: not shown

Enrichment [2]: 111000
B14: Mutant 3, Fab displayed on yeast (CDRH2-CDRH3 combinatorial library) (Fab, V domains shown)
VH: B1 VH with A49G, A52N, R58H, V99T, S100T, S103P
VL: not shown
notes: same variable domains as the soluble Mutant 3 Fab; see its note

Enrichment [1]: 100
B18: CDRH2 library mutant SAISWNGGHT (Fab, V domains shown)
VH: B1 VH with A49S, A52S, R58T
VL: not shown

Enrichment [1]: 79
B20: CDRH2 library mutant SAINWNGGHR (Fab, V domains shown)
VH: B1 VH with A49S, A52N
VL: not shown

Enrichment [1]: 128
B21: CDRH2 library mutant SSIAWNGGHW (Fab, V domains shown)
VH: B1 VH with A49S, A50S, R58W
VL: not shown

Enrichment [2]: 512000
B22: Mutant 5, Fab displayed on yeast (CDRH2-CDRH3 combinatorial library) (Fab, V domains shown)
VH: B1 VH with A49G, A50D, A52S, R58T, V99T, S100T, S103P
VL: not shown
notes: same variable domains as the soluble Mutant 5 Fab; see its note

Enrichment [1]: 207
B23: CDRH2 library mutant SAISWNGGHR (Fab, V domains shown)
VH: B1 VH with A49S, A52S
VL: not shown

Kd [3]: 9 pM
B24: Mutant 5, Fab format (Fab, V domains shown)
VH: B1 VH with A49G, A50D, A52S, R58T, V99T, S100T, S103P
VL: not shown
notes: Soluble Fab as for Mutant 1; also called mutation 5

Enrichment [2]: 1.47e+06
B31: Mutant 2, Fab displayed on yeast (CDRH2-CDRH3 combinatorial library) (Fab, V domains shown)
VH: B1 VH with A49G, A50T, A52N, R58S, V99T, S100T, S103P
VL: not shown
notes: same variable domains as the soluble Mutant 2 Fab; see its note

Enrichment [2]: 238000
B35: Mutant 8, Fab displayed on yeast (CDRH2-CDRH3 combinatorial library) (Fab, V domains shown)
VH: B1 VH with A49G, A52N, V93L, V99T, S100T, S103P
VL: not shown
notes: same variable domains as the soluble Mutant 8 Fab; see its note
